Values of other authors, collected in paper PMC7088015.
Where two headings read alike, the source gives them in different places.

Tests used:
Settings in all cases: free dipeptide in solution (not further stated)
Nterm [1] = experiment: not stated
[2] = test system: Cterm (position 1, -----H-----); experiment: not stated
[3] = test system: His2 (position 1, -----H-----); experiment: not stated
Cterm = test system: Cterm
Nterm [4] = test system: Nterm

Substance | pKa (Nterm [1]) | pKa [2] | pKa [3] | pKa (Cterm) | pKa (Nterm [4])
Carnosine (beta-alanyl-L-histidine) (natural dipeptide of vertebrate skeletal muscle (discovered in cattle, Bos taurus); source of the titrated material not stated) | 9.66 | 2.77 | 6.83 |  | 
Anserine (beta-alanyl-1-methyl-L-histidine) (natural dipeptide of skeletal muscle of birds, fish and cattle (first identified in goose muscle); source of the titrated material not stated) |  |  |  | 2.64 | 9.49
